Tests used:
hiR2-FL-K536A-T7 = biological target: T1, hiR2-FL-K536A-T7 (human, UniProt Q6PJF5 1-856); experiment: FACS on MEF-DKO cells expressing the variant, 3 µg/ml antibody
T1 construct: on MEF-DKO cells
T1 sequence: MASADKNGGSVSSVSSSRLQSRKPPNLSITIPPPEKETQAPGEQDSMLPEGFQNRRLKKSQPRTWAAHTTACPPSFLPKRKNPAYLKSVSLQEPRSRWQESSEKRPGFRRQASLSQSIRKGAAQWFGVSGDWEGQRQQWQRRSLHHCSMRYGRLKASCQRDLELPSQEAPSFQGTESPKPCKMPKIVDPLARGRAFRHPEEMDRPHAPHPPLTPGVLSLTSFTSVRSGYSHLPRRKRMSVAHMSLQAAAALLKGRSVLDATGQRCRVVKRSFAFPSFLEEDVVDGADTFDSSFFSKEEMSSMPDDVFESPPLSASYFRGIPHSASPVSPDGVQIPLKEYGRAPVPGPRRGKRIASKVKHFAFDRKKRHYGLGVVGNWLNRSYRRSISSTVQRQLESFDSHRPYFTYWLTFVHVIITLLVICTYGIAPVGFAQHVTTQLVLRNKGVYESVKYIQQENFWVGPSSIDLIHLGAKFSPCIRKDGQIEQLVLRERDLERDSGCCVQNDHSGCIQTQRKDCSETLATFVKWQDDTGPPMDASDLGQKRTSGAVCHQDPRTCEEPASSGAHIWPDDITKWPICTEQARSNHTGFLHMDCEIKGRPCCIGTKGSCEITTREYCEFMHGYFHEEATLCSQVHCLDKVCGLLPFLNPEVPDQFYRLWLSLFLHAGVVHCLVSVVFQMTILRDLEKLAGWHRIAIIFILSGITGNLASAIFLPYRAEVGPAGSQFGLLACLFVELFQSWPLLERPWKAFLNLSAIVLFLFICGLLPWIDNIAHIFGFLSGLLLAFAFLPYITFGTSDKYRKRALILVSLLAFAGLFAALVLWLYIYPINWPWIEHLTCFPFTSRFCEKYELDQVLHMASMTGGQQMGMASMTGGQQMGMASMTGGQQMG
In short: (§1)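 Cells were stained with purified antibody at 3 μg/ml in FACS buffer for 1 hour on ice, with buffer-only controls. Bound antibody was detected with PE-conjugated goat anti-mouse IgG F(ab′)2 at 1:100, 1 hour on ice in the dark, followed by flow cytometry.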

hiR2-FL-G546A-T7 = biological target: T2, hiR2-FL-G546A-T7 (human, UniProt Q6PJF5 1-856); experiment: as above
T2 sequence: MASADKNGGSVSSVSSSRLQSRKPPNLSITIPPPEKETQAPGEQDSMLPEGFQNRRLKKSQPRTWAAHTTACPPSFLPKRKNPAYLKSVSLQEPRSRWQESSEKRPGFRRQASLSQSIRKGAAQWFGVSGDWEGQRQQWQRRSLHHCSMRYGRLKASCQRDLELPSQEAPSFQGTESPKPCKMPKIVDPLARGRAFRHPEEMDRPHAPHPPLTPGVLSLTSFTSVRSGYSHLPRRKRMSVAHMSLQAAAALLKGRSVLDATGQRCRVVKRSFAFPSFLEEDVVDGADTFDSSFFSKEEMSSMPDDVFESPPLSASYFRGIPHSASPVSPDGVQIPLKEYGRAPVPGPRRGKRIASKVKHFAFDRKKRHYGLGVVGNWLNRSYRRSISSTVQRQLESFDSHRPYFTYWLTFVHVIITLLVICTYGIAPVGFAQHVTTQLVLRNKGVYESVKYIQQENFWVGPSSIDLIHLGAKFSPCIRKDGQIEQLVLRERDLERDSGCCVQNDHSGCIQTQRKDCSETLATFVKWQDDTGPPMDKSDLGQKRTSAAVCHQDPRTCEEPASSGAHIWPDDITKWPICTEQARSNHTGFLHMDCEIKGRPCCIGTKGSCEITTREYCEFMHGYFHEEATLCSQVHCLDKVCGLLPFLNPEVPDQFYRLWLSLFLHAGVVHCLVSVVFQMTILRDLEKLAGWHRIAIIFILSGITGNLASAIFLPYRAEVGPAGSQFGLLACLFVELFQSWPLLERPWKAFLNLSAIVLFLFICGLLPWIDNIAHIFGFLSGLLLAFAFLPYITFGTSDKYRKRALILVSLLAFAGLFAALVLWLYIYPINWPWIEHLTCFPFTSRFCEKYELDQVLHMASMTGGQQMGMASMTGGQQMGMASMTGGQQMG
In short: as §1

B1: antibody 16 (antibody, V domains shown)
VH: QVTLKESGPGILQPSQTLSLTCSFSGFSLSTFALGVGWIRQPSGRGLEWLAHIWWDDDKYYNPALKSRLTISKDTSKNHVFLKIANVDTADTATYYCARITTYYYGMDYWGQGTSVTVSS
VL: DIVLSQSPATLSVTPGDSVSLFCRASQSIGNHLHWYQQESHASPRLLIKYASQSISGIPSRFSGSGSGTDFTLSINSVETEDFGMYFCQQSYNWPLTFGAGTKLELK
notes: mouse IgG, kappa light chain; also called clone #16; purified antibody 16
loss of binding vs wild type (hiR2-FL-K536A-T7): ≥ 60%

B2: antibody 3 (antibody, V domains shown)
VH: QVTLKESGPGILQPSQTLSLTCSFSGFSLTTFAMGIGWVRQPSGKGLEWLAHIWWDGEKYNNPVLKSRLTISKDTSKNQVFLRIANVDTPDTATYYCARISSIYYIIDNWGQGTSVTVSS
VL: DIVLTQSPATLSVTPGHSVSLSCRASQSISNNLHWYQKKSHESPRLLIKYVSQSISGIPSRFSGSGSGTDFTLSINSVETEDFGMYFCQQSYNWPLTFGAGTKLELK
notes: mouse IgG, kappa light chain; also called clone #3; purified antibody 3
loss of binding vs wild type (hiR2-FL-K536A-T7): ≥ 60% | loss of binding vs wild type (hiR2-FL-G546A-T7): ≥ 30%

B3: antibody 34 (antibody, V domains shown)
VH: QVTLKESGPGILQPSQTLSLTCSFSGFSLSTFSLGVGWIRQSSGKGLEWLAHIWWDDEKYYNPALKSRLTISKDTSKNQVFLKIANVDAADTATYYCARAYYSKSYYALDYWGQGTSVTVSS
VL: DIQMTQSPSSLSASLGERVSLTCRASQEISGYLSWLQQKPDGTIKRLIYAASTLDSGVPKRFSGSRSGSDYSLAISSLESEDFADYYCLQYANFPFTFGSGTKLEIK
notes: mouse IgG, kappa light chain; also called clone #34; purified antibody 34
loss of binding vs wild type (hiR2-FL-G546A-T7): ≥ 30%

B4: antibody 48 (antibody, V domains shown)
VH: QVQLQQSGTELVRPGTSVKVSCKASGYAFTNYLIEWVKQRPGQGLEWIGVINPGSGFTKYNEKFKGKATLTADKSSSTVYMHLSSLTSEDSAVYFCARGLYRAMDYWGQGTSVTVSS
VL: DIQMTQSPASQSASLGESVTITCLASQTIATWLAWYQQKPGKSPQLLIYGATTLADGVPSRFSGGGSGTKFSFKISSLQAEDFVSYYCQQLYSTPYTFGGGTKLEIK
notes: mouse IgG, kappa light chain; also called clone #48; purified antibody 48
loss of binding vs wild type (hiR2-FL-K536A-T7): ≥ 30%

B5: antibody 5 (antibody, V domains shown)
VH: QVTLKESGPGILQPSQTLSLTCSFSGFSLSTFGMGVGWIRQPSGKGLEWLAHIWWDDEKYYNSALKSRLTISKATSKNQAFLKIANVDTADTATYYCARISNYGSNYWYFNVWGTGTTVTVSS
VL: QVVLTQSPALMSASPGEKVTMTCSAGSSVSCMYWYQQKPGSSPRVLIYDTSNLASGVPARFTGSGSGTSYSLTISRMEAEDAASYYCQQWNSYPLTFGAGTKLELK
notes: mouse IgG, kappa light chain; also called clone #5; purified antibody 5
loss of binding vs wild type (hiR2-FL-K536A-T7): ≥ 95% | loss of binding vs wild type (hiR2-FL-G546A-T7): ≥ 30%

B6: antibody 43 (antibody, V domains shown)
VH: QVALKESGPGILQPSQTLSLTCSFSGFSLSTFGMGVGWIRQSSGKGLEWLANIWWDDDKYYNPALKSRLTISKDASKNQAFLKIANVDTADTATYYCARIGNYGSNYWYFDVWGTGTTVTVSS
VL: QIVLTQSPAIMSASPGERVTMTCSANSRISYMYWYQQKPGSSPRLLIYDTSNLASGVPVRFSGSGSGTSYSLTISRMEAEDAATYNCQQWSSYPLTFGAGTKLELK
notes: mouse IgG, kappa light chain; also called clone #43; purified antibody 43
loss of binding vs wild type (hiR2-FL-K536A-T7): ≥ 60% | loss of binding vs wild type (hiR2-FL-G546A-T7): ≥ 30%

B7: antibody 44 (antibody, V domains shown)
VH: QVTLKESGPGILQPSQTLSLTCSFSGFSLSTFGMGVGWIRQPSEKGLEWLAHIWWDDDKYYNPALKSRLTISKDTSKNQIFLKITNVDTAETATYYCSRIGNYGSNYWYFDVWGTGTTVTVSS
VL: QIVLTQSPAVMSASPGEKVTMTCTASSSVYYMYWYQQTPGSSPRLLIYDTSNLASGVPVRFSGSGSGTSYSLTISRMEAEDAATYYCQQWNTYPLTFGAGTKLELK
notes: mouse IgG, kappa light chain; also called clone #44; purified antibody 44
loss of binding vs wild type (hiR2-FL-G546A-T7): ≥ 30%
